Measured values from publication PMC5370111, “Biophysical characterization of the b-HLH-LZ of ΔMax, an alternatively spliced isoform of Max found in tumor cells: Towards the validation of a tumor suppressor role for the Max homodimers”.

Legend:
[1] = test system: Max* in heterodimer;ΔMax* in heterodimer V99G;R100E;A101S;L102E;E103S (;), P61244+P61244-3; test: fluorescence anisotropy; conditions: 37 C, 1:1 mixture, apparent 1/KBinding, internal fluorescein-dT (iFluorT) at position 4, FA: 15 nM dsDNA, 50 mM Tris, 50 mM KCl, pH 7.5, 37 C, EMSA: 250 nM DNA, 20 mM Tris-HCl, 75 mM KCl, 2.5 mM TCEP, 25 ug/mL BSA, 5% glycerol, pH 8.0, room temp …
Sequence of Max* in heterodimer;ΔMax* in heterodimer V99G;R100E;A101S;L102E;E103S (;), P61244+P61244-3 (P61244 whole entry V99G/R100E/A101S/L102E/E103S, looked up, canonical isoform, one chain of several): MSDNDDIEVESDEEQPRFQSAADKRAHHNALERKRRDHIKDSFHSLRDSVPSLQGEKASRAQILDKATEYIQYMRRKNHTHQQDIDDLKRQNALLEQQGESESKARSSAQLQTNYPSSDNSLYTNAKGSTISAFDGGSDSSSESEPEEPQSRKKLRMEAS

[2] = test system: ΔMax* (b-HLH-LZ of ΔMax splice isoform) V99G;R100E;A101S;L102E;E103S, P61244-3; test: fluorescence anisotropy; conditions: 37 C; apparent 1/KBinding of dimer; 1/KDimer 220 ± 20 nM; internal fluorescein-dT (iFluorT) at position 4; FA: 15 nM dsDNA, 50 mM Tris, 50 mM KCl, pH 7.5, 37 C; EMSA: 250 nM DNA, 20 mM Tris-HCl, 75 mM KCl, 2.5 mM TCEP, 25 ug/mL BSA, 5% glycerol, pH 8.0, room temp …
Sequence of ΔMax* (b-HLH-LZ of ΔMax splice isoform) V99G;R100E;A101S;L102E;E103S, P61244-3 (P61244 whole entry V99G/R100E/A101S/L102E/E103S, looked up, canonical isoform): as the sequence (P61244 whole entry V99G/R100E/A101S/L102E/E103S, looked up, canonical isoform, one chain of several) above

[3] = test system: ΔMax* in heterodimer;c-Myc* in heterodimer V99G;R100E;A101S;L102E;E103S (;), P61244-3+P01106; test: fluorescence anisotropy; conditions: 37 C, 1:1 mixture, apparent 1/KBinding, internal fluorescein-dT (iFluorT) at position 4, FA: 15 nM dsDNA, 50 mM Tris, 50 mM KCl, pH 7.5, 37 C, EMSA: 250 nM DNA, 20 mM Tris-HCl, 75 mM KCl, 2.5 mM TCEP, 25 ug/mL BSA, 5% glycerol, pH 8.0, room temp …
Sequence of ΔMax* in heterodimer;c-Myc* in heterodimer V99G;R100E;A101S;L102E;E103S (;), P61244-3+P01106 (P01106 whole entry, looked up, chain 1 of 2): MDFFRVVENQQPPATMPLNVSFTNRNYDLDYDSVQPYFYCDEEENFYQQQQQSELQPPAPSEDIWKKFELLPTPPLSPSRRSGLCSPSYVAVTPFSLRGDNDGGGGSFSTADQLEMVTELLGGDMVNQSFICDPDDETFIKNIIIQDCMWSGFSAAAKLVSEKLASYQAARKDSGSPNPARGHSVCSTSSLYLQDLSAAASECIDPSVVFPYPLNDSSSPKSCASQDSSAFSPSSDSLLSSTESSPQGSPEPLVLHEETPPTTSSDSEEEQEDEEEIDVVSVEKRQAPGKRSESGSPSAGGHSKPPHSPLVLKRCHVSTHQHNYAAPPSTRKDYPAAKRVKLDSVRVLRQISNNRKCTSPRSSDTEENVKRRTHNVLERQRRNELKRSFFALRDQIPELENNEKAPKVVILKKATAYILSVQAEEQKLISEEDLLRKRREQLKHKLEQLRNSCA
Sequence of ΔMax* in heterodimer;c-Myc* in heterodimer V99G;R100E;A101S;L102E;E103S (;), P61244-3+P01106 (P61244 whole entry, looked up, stated change not applied, chain 2 of 2): as the sequence (P61244 whole entry V99G/R100E/A101S/L102E/E103S, looked up, canonical isoform, one chain of several) above, with G99V, E100R, S101A, E102L, S103E counted along it

[4] = molecular target: T1, Max* (b-HLH-LZ of WT Max) (UniProt P61244 22-103); test: CD thermal denaturation; complex T° 43.7 C; less stable than E-box; FA: 15 nM dsDNA, 50 mM Tris, 50 mM KCl, pH 7.5, 37 C; EMSA: 250 nM DNA, 20 mM Tris-HCl, 75 mM KCl, 2.5 mM TCEP, 25 ug/mL BSA, 5% glycerol, pH 8.0, room temp; CD: 25 mM KH2PO4, 25 mM Na2HPO4, 50 mM KCl, 1 mM TCEP, pH 6.8; conditions: protein: recombinant; tags: C-terminal GSGC stated for the deltaMax* construct only; not restated for Max*; chain copies: 2; blunt, self-complementary palindrome
T1 sequence (P61244 22-103): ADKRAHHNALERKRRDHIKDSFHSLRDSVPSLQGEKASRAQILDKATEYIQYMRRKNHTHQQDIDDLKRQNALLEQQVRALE

[5] = molecular target: T1, Max* (b-HLH-LZ of WT Max); test: fluorescence anisotropy; 37 C; apparent 1/KBinding of dimer; 1/KDimer 55 ± 7 nM; FA: 15 nM dsDNA, 50 mM Tris, 50 mM KCl, pH 7.5, 37 C; EMSA: 250 nM DNA, 20 mM Tris-HCl, 75 mM KCl, 2.5 mM TCEP, 25 ug/mL BSA, 5% glycerol, pH 8.0, room temp; CD: 25 mM KH2PO4, 25 mM Na2HPO4, 50 mM KCl, 1 mM TCEP, pH 6.8; conditions: protein: recombinant; tags: C-terminal GSGC stated for the deltaMax* construct only; not restated for Max*; chain copies: 2; label: fluorescein; blunt, self-complementary palindrome
[6] = molecular target: T2, c-Myc* (b-HLH-LZ of c-Myc) (UniProt P01106 368-451); test: fluorescence anisotropy; 37 C; apparent 1/KBinding of dimer; 1/KDimer 8.5 ± 3 nM; FA: 15 nM dsDNA, 50 mM Tris, 50 mM KCl, pH 7.5, 37 C; EMSA: 250 nM DNA, 20 mM Tris-HCl, 75 mM KCl, 2.5 mM TCEP, 25 ug/mL BSA, 5% glycerol, pH 8.0, room temp; CD: 25 mM KH2PO4, 25 mM Na2HPO4, 50 mM KCl, 1 mM TCEP, pH 6.8; conditions: protein: recombinant; chain copies: 2; label: fluorescein; blunt, self-complementary palindrome
T2 sequence (P01106 368-451): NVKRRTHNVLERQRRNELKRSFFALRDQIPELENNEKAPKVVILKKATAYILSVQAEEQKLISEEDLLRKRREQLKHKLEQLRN

[7] = molecular target: T2, c-Myc* (b-HLH-LZ of c-Myc); test: CD thermal denaturation; stable complex; FA: 15 nM dsDNA, 50 mM Tris, 50 mM KCl, pH 7.5, 37 C; EMSA: 250 nM DNA, 20 mM Tris-HCl, 75 mM KCl, 2.5 mM TCEP, 25 ug/mL BSA, 5% glycerol, pH 8.0, room temp; CD: 25 mM KH2PO4, 25 mM Na2HPO4, 50 mM KCl, 1 mM TCEP, pH 6.8; conditions: protein: recombinant; chain copies: 2; blunt, self-complementary palindrome
[8] = molecular target: T1, Max* (b-HLH-LZ of WT Max); test: CD thermal denaturation; complex T° 56.1 C; FA: 15 nM dsDNA, 50 mM Tris, 50 mM KCl, pH 7.5, 37 C; EMSA: 250 nM DNA, 20 mM Tris-HCl, 75 mM KCl, 2.5 mM TCEP, 25 ug/mL BSA, 5% glycerol, pH 8.0, room temp; CD: 25 mM KH2PO4, 25 mM Na2HPO4, 50 mM KCl, 1 mM TCEP, pH 6.8; conditions: protein: recombinant; tags: C-terminal GSGC stated for the deltaMax* construct only; not restated for Max*; chain copies: 2; blunt, self-complementary palindrome
[9] = molecular target: Max* in heterodimer;c-Myc* in heterodimer (;, UniProt P61244;P01106 22-103;368-451, |); test: EMSA; room temperature; Max*/Max* complex also seen at 2:1 excess of c-Myc*; FA: 15 nM dsDNA, 50 mM Tris, 50 mM KCl, pH 7.5, 37 C; EMSA: 250 nM DNA, 20 mM Tris-HCl, 75 mM KCl, 2.5 mM TCEP, 25 ug/mL BSA, 5% glycerol, pH 8.0, room temp; CD: 25 mM KH2PO4, 25 mM Na2HPO4, 50 mM KCl, 1 mM TCEP, pH 6.8; conditions: protein: recombinant;recombinant; tags: ;; copies: 1;1; label: fluorescein; blunt, self-complementary palindrome
Sequence of Max* in heterodimer;c-Myc* in heterodimer (P61244 22-103, chain 1 of 2): as the sequence (P61244 22-103) above
Sequence of Max* in heterodimer;c-Myc* in heterodimer (P01106 368-451, chain 2 of 2): as the sequence (P01106 368-451) above

[10] = molecular target: T1, Max* (b-HLH-LZ of WT Max); test: fluorescence anisotropy; 37 C; apparent 1/KBinding of dimer; 1/KDimer 8.6 ± 1.2 nM; FA: 15 nM dsDNA, 50 mM Tris, 50 mM KCl, pH 7.5, 37 C; EMSA: 250 nM DNA, 20 mM Tris-HCl, 75 mM KCl, 2.5 mM TCEP, 25 ug/mL BSA, 5% glycerol, pH 8.0, room temp; CD: 25 mM KH2PO4, 25 mM Na2HPO4, 50 mM KCl, 1 mM TCEP, pH 6.8; conditions: protein: recombinant; tags: C-terminal GSGC stated for the deltaMax* construct only; not restated for Max*; chain copies: 2; label: fluorescein; blunt, self-complementary palindrome
[11] = molecular target: T2, c-Myc* (b-HLH-LZ of c-Myc); test: fluorescence anisotropy; 37 C; apparent 1/KBinding of dimer; 1/KDimer 0.48 ± 0.5 nM; FA: 15 nM dsDNA, 50 mM Tris, 50 mM KCl, pH 7.5, 37 C; EMSA: 250 nM DNA, 20 mM Tris-HCl, 75 mM KCl, 2.5 mM TCEP, 25 ug/mL BSA, 5% glycerol, pH 8.0, room temp; CD: 25 mM KH2PO4, 25 mM Na2HPO4, 50 mM KCl, 1 mM TCEP, pH 6.8; conditions: protein: recombinant; chain copies: 2; label: fluorescein; blunt, self-complementary palindrome

GAGTAGCACGTGCTACTC (double strand) [E-box, fluorescein-labeled]
Kd ([1]; 1/KDimer 120 ± 10 nM): 4 nM
Kd [2]: 80 nM
Kd ([3]; 1/KDimer 17 ± 2 nM): 10 nM

GAGTAGGGATCCCTACTC (double strand) [Non-specific DNA, fluorescein-labeled]
Kd ([1]; 1/KDimer 460 ± 34 nM): 40 nM
Kd ([3]; 1/KDimer 38 ± 5 nM): 11 nM

B1: Non-specific DNA, unlabeled (CD) (dsDNA)
DNA 1: GAGTAGGGATCCCTACTC
DNA 2: GAGTAGGGATCCCTACTC
binding result [4]: binds

B2: Non-specific DNA, fluorescein-labeled (dsDNA)
DNA 1: GAGTAGGGATCCCTACTC
DNA 2: GAGTAGGGATCCCTACTC
modifications: internal fluorescein-dT (iFluorT) at position 4
Kd [5]: 23 nM
Kd [6]: 280 nM

B3: E-box, unlabeled (CD) (dsDNA)
DNA 1: GAGTAGCACGTGCTACTC
DNA 2: GAGTAGCACGTGCTACTC
binding result [7]: binds
binding result [8]: binds

B4: E-box, fluorescein-labeled (dsDNA)
DNA 1: GAGTAGCACGTGCTACTC
DNA 2: GAGTAGCACGTGCTACTC
modifications: internal fluorescein-dT (iFluorT) at position 4
binding result [9]: binds
Kd [10]: 4.8 nM
Kd [11]: 70 nM
